{"source": "the PETadex activity labels (doi:10.1038/s41586-022-04599-z)", "proteins": {"B1": {"name": "unnamed (protein)", "chain": "SNPYQRGPNPTRSALTADGPFSVATYTVSRLSVSGFGGGVIYYPTGTSLTFGGIAMSPGYTADASSLAWLGRRLASHGFVVLVINTNSRFDYPDSRASQLSAALNYLRTSSPSAVRARLDANRLAVAGHSMGGGGTLRIAEQNPSLKAAVPLTPWHTDKTFNTSVPVLIVGAEADTVAPVSQHAIPFYQNLPSTTPKVYVELDNASHFAPNSNNAAISVYTISWMKLWVDNDTRYRQFLCNVNDPALSDFRTNNRHCQLEHHHHHH"}, "B2": {"name": "unnamed (protein)", "chain": "MSNPYQRGPNPTRSALTADGPFSVATYTVSRLSVSGFGGGVIYYPTGTSLTFGGIAMSPGYTADASSLAWLGRRLASHGFVVLVINTNSRFDYPDSRASQLSAALNYLRTSSPSAVRARLDANRLAVAGHSMGGGGTLRIAEQNPSLKAAVPLTPWHTDKTFNTSVPVLIVGAEADTVAPVSQHAIPFYQNLPSTTPKVYVELCNASHIAPMSNNAAISVYTISWMKLWVDNDTRYRQFLCNVNDPALCDFRTNNRHCQLEHHHHHH"}, "B3": {"name": "unnamed (protein)", "chain": "QTNPYARGPNPTAASLEASAGPFTVRSFTVSRPSGYGAGTVYYPTNAGGTVGAIAIVPGYTARQSSIKWWGPRLASHGFVVITIDTNSTLDQPESRSSQQMAALRQVASLNGTSSSPIYGKVDTARMGVMGWSMGGGGSLISAANNPSLKAAAPQAPWHSSTNFSSVTVPTLIFACENDSIAPVNSSALPIYDSMSRNAKQFLEINGGSHSCANSGNSNQALIGKKGVAWMKRFMDNDTRYSTFACENPNSTAVSDFRTANCSLEHHHHHH"}, "B4": {"name": "unnamed (protein)", "chain": "B3 chain with R197Q, N206K"}, "B5": {"name": "unnamed (protein)", "chain": "B3 chain with E94S, H159D, A253R"}, "B6": {"name": "unnamed (protein)", "chain": "QTNPYARGPNPTAASLEASAGPFTVRSFTVSRPSGYGAGTVYYPTNAGGTVGAIAIVPGYTARQSSIKWWGPRLASHGFVVITIDTNSTFDYPSSRSSQQMAALRQVASLNGDSSSPIYGKVDTARMGVMGHSMGGGASLRSAANNPSLKAAIPQAPWDSQTNFSSVTVPTLIFACENDSIAPVNSHALPIYDSMSRNAKQFLEINGGSHSCANSGNSNQALIGKKGVAWMKRFMDNDTRYSTFACENPNSTAVSDFRTANCSLEHHHHHH"}}, "note": "Where a chain is given by its changes, count along the chain named."}
{"substrate": "PET", "assay": "Proxy for plastic degradation [Released monomer concentration (HPLC/LC-MS) (MHET+TPA)]", "conditions": "pH 6.5; 30 °C", "units": {"Proxy for plastic degradation": "mM"}}
{"protein": "B1", "Proxy for plastic degradation": 0.17}
{"protein": "B2", "Proxy for plastic degradation": 0.18}
{"substrate": "PET", "assay": "Proxy for plastic degradation [Released monomer concentration (HPLC/LC-MS) (MHET+TPA)]", "conditions": "pH 6.5; 40 °C", "units": {"Proxy for plastic degradation": "mM"}}
{"protein": "B1", "Proxy for plastic degradation": 0.2}
{"protein": "B2", "Proxy for plastic degradation": 0.8}
{"substrate": "PET", "assay": "Proxy for plastic degradation [Released monomer concentration (HPLC/LC-MS) (MHET+TPA)]", "conditions": "pH 7; 30 °C", "units": {"Proxy for plastic degradation": "mM"}}
{"protein": "B1", "Proxy for plastic degradation": 0.2}
{"protein": "B2", "Proxy for plastic degradation": 0.23}
{"substrate": "PET", "assay": "Proxy for plastic degradation [Released monomer concentration (HPLC/LC-MS) (MHET+TPA)]", "conditions": "pH 7; 40 °C", "units": {"Proxy for plastic degradation": "mM"}}
{"protein": "B1", "Proxy for plastic degradation": 0.4}
{"protein": "B2", "Proxy for plastic degradation": 2}
{"substrate": "PET", "assay": "Proxy for plastic degradation [Released monomer concentration (HPLC/LC-MS) (MHET+TPA)]", "conditions": "pH 7.5; 30 °C", "units": {"Proxy for plastic degradation": "mM"}}
{"protein": "B1", "Proxy for plastic degradation": 0.22}
{"protein": "B2", "Proxy for plastic degradation": 0.23}
{"substrate": "PET", "assay": "Proxy for plastic degradation [Released monomer concentration (HPLC/LC-MS) (MHET+TPA)]", "conditions": "pH 7.5; 40 °C", "units": {"Proxy for plastic degradation": "mM"}}
{"protein": "B1", "Proxy for plastic degradation": 1.9}
{"protein": "B2", "Proxy for plastic degradation": 3}
{"substrate": "PET", "assay": "Proxy for plastic degradation [Released monomer concentration (HPLC/LC-MS) (MHET+TPA)]", "conditions": "pH 8; 30 °C", "units": {"Proxy for plastic degradation": "mM"}}
{"protein": "B1", "Proxy for plastic degradation": 0.25}
{"protein": "B2", "Proxy for plastic degradation": 0.37}
{"substrate": "PET", "assay": "Proxy for plastic degradation [Released monomer concentration (HPLC/LC-MS) (MHET+TPA)]", "conditions": "pH 8; 40 °C", "units": {"Proxy for plastic degradation": "mM"}}
{"protein": "B1", "Proxy for plastic degradation": 2.3}
{"protein": "B2", "Proxy for plastic degradation": 4}
{"substrate": "PET", "assay": "Proxy for plastic degradation [Released monomer concentration (HPLC/LC-MS) (MHET+TPA)]", "conditions": "pH 6.5; 30 °C; part of the chain shown", "units": {"Proxy for plastic degradation": "mM"}}
{"protein": "B3", "Proxy for plastic degradation": 0.6}
{"protein": "B4", "Proxy for plastic degradation": 0.7}
{"protein": "B5", "Proxy for plastic degradation": 0.1}
{"protein": "B6", "Proxy for plastic degradation": 0.15}
{"substrate": "PET", "assay": "Proxy for plastic degradation [Released monomer concentration (HPLC/LC-MS) (MHET+TPA)]", "conditions": "pH 6.5; 40 °C; part of the chain shown", "units": {"Proxy for plastic degradation": "mM"}}
{"protein": "B3", "Proxy for plastic degradation": 0.5}
{"protein": "B4", "Proxy for plastic degradation": 1}
{"protein": "B5", "Proxy for plastic degradation": 0}
{"protein": "B6", "Proxy for plastic degradation": 0}
{"substrate": "PET", "assay": "Proxy for plastic degradation [Released monomer concentration (HPLC/LC-MS) (MHET+TPA)]", "conditions": "pH 7; 30 °C; part of the chain shown", "units": {"Proxy for plastic degradation": "mM"}}
{"protein": "B3", "Proxy for plastic degradation": 1.2}
{"protein": "B4", "Proxy for plastic degradation": 1.5}
{"protein": "B5", "Proxy for plastic degradation": 0.15}
{"protein": "B6", "Proxy for plastic degradation": 0.15}
{"substrate": "PET", "assay": "Proxy for plastic degradation [Released monomer concentration (HPLC/LC-MS) (MHET+TPA)]", "conditions": "pH 7; 40 °C; part of the chain shown", "units": {"Proxy for plastic degradation": "mM"}}
{"protein": "B3", "Proxy for plastic degradation": 9}
{"protein": "B4", "Proxy for plastic degradation": 12}
{"protein": "B5", "Proxy for plastic degradation": 0}
{"protein": "B6", "Proxy for plastic degradation": 0.3}
{"substrate": "PET", "assay": "Proxy for plastic degradation [Released monomer concentration (HPLC/LC-MS) (MHET+TPA)]", "conditions": "pH 7.5; 30 °C; part of the chain shown", "units": {"Proxy for plastic degradation": "mM"}}
{"protein": "B3", "Proxy for plastic degradation": 2.3}
{"protein": "B4", "Proxy for plastic degradation": 2.9}
{"protein": "B5", "Proxy for plastic degradation": 0.25}
{"protein": "B6", "Proxy for plastic degradation": 0.2}
{"substrate": "PET", "assay": "Proxy for plastic degradation [Released monomer concentration (HPLC/LC-MS) (MHET+TPA)]", "conditions": "pH 7.5; 40 °C; part of the chain shown", "units": {"Proxy for plastic degradation": "mM"}}
{"protein": "B3", "Proxy for plastic degradation": 12}
{"protein": "B4", "Proxy for plastic degradation": 19}
{"protein": "B5", "Proxy for plastic degradation": 0}
{"protein": "B6", "Proxy for plastic degradation": 1}
{"substrate": "PET", "assay": "Proxy for plastic degradation [Released monomer concentration (HPLC/LC-MS) (MHET+TPA)]", "conditions": "pH 8; 30 °C; part of the chain shown", "units": {"Proxy for plastic degradation": "mM"}}
{"protein": "B3", "Proxy for plastic degradation": 2.9}
{"protein": "B4", "Proxy for plastic degradation": 3.6}
{"protein": "B5", "Proxy for plastic degradation": 0.6}
{"protein": "B6", "Proxy for plastic degradation": 0.15}
{"substrate": "PET", "assay": "Proxy for plastic degradation [Released monomer concentration (HPLC/LC-MS) (MHET+TPA)]", "conditions": "pH 8; 40 °C; part of the chain shown", "units": {"Proxy for plastic degradation": "mM"}}
{"protein": "B3", "Proxy for plastic degradation": 13}
{"protein": "B4", "Proxy for plastic degradation": 32}
{"protein": "B5", "Proxy for plastic degradation": 0.2}
{"protein": "B6", "Proxy for plastic degradation": 2}
{"substrate": "PET", "assay": "Proxy for plastic degradation [Released monomer concentration (HPLC/LC-MS) (MHET+TPA)]", "conditions": "pH 8; 1 h; part of the chain shown", "units": {"Proxy for plastic degradation": "mM"}}
{"protein": "B4", "Proxy for plastic degradation": 13.4}
{"substrate": "PET", "assay": "Proxy for plastic degradation [Released monomer concentration (HPLC/LC-MS) (MHET+TPA)]", "conditions": "pH 8; 2 h; part of the chain shown", "units": {"Proxy for plastic degradation": "mM"}}
{"protein": "B4", "Proxy for plastic degradation": 31.1}
{"substrate": "PET", "assay": "Proxy for plastic degradation [Released monomer concentration (HPLC/LC-MS) (MHET+TPA)]", "conditions": "pH 8; 3 h; part of the chain shown", "units": {"Proxy for plastic degradation": "mM"}}
{"protein": "B4", "Proxy for plastic degradation": 48.7}
{"substrate": "PET", "assay": "Proxy for plastic degradation [Released monomer concentration (HPLC/LC-MS) (MHET+TPA)]", "conditions": "pH 8; 4 h; part of the chain shown", "units": {"Proxy for plastic degradation": "mM"}}
{"protein": "B4", "Proxy for plastic degradation": 66.7}
{"substrate": "PET", "assay": "Proxy for plastic degradation [Released monomer concentration (HPLC/LC-MS) (MHET+TPA)]", "conditions": "pH 8; 5 h; part of the chain shown", "units": {"Proxy for plastic degradation": "mM"}}
{"protein": "B4", "Proxy for plastic degradation": 88}
{"substrate": "PET", "assay": "Proxy for plastic degradation [Released monomer concentration (HPLC/LC-MS) (MHET+TPA)]", "conditions": "pH 8; 6 h; part of the chain shown", "units": {"Proxy for plastic degradation": "mM"}}
{"protein": "B4", "Proxy for plastic degradation": 109}
{"substrate": "PET", "assay": "Proxy for plastic degradation [Released monomer concentration (HPLC/LC-MS) (MHET+TPA)]", "conditions": "pH 8; 7 h; part of the chain shown", "units": {"Proxy for plastic degradation": "mM"}}
{"protein": "B4", "Proxy for plastic degradation": 131}
{"substrate": "PET", "assay": "Proxy for plastic degradation [Released monomer concentration (HPLC/LC-MS) (MHET+TPA)]", "conditions": "pH 8; 8 h; part of the chain shown", "units": {"Proxy for plastic degradation": "mM"}}
{"protein": "B4", "Proxy for plastic degradation": 148}
{"substrate": "PET", "assay": "Proxy for plastic degradation [Released monomer concentration (HPLC/LC-MS) (MHET+TPA)]", "conditions": "pH 8; 9 h; part of the chain shown", "units": {"Proxy for plastic degradation": "mM"}}
{"protein": "B4", "Proxy for plastic degradation": 163}
{"substrate": "PET", "assay": "Proxy for plastic degradation [Released monomer concentration (HPLC/LC-MS) (MHET+TPA)]", "conditions": "pH 8; 10 h; part of the chain shown", "units": {"Proxy for plastic degradation": "mM"}}
{"protein": "B4", "Proxy for plastic degradation": 175}
{"substrate": "PET", "assay": "Proxy for plastic degradation [Released monomer concentration (HPLC/LC-MS) (MHET+TPA)]", "conditions": "pH 8; 11 h; part of the chain shown", "units": {"Proxy for plastic degradation": "mM"}}
{"protein": "B4", "Proxy for plastic degradation": 185}
{"substrate": "PET", "assay": "Proxy for plastic degradation [Released monomer concentration (HPLC/LC-MS) (MHET+TPA)]", "conditions": "pH 8; 12 h; part of the chain shown", "units": {"Proxy for plastic degradation": "mM"}}
{"protein": "B4", "Proxy for plastic degradation": 195}
{"substrate": "PET", "assay": "Proxy for plastic degradation [Released monomer concentration (HPLC/LC-MS) (MHET+TPA)]", "conditions": "pH 8; 13 h; part of the chain shown", "units": {"Proxy for plastic degradation": "mM"}}
{"protein": "B4", "Proxy for plastic degradation": 204}
{"substrate": "PET", "assay": "Proxy for plastic degradation [Released monomer concentration (HPLC/LC-MS) (MHET+TPA)]", "conditions": "pH 8; 13.5 h; part of the chain shown", "units": {"Proxy for plastic degradation": "mM"}}
{"protein": "B4", "Proxy for plastic degradation": 208}
